From patent publication US20110314564A1, “ENZYMES AND METHODS FOR HYDROLYSING PHENYLUREAS, CARBAMATES AND ORGANOPHOSPHATES” (priority 2008, published 2011)

Key:
[1] = neutral buffer; estimated from the work of Salvestrini et al. (2002); cited from earlier work
[2] = target: PuhB (Mycolicibacterium brisbanense, UniProt B8R4K0); experiment: Hydrolysis of phenylurea, carbamate and organophosphate substrates by purified PuhB (LCMS / FBBS / A400 assays); settings: PuhB
[3] = tested on: Mycobacterium brisbanense strain JK1; experiment: Degradation of diuron and accumulation of DCA in liquid culture; assay type: cell-based; settings: alternate nitrogen source present
Method: MM (50 mL) supplemented with 10 mM glucose, 0.13 mM diuron and 18.7 mM ammonium chloride (as required) were inoculated with 0.2% of a homogeneous suspension of freshly grown M. brisbanense strain JK1 cells (0D600=˜10). Cultures were incubated at 28° C. with shaking at 200 rpm, in the dark. Samples were taken at ˜24 hour intervals, and metabolites were extracted in 50% acetonitrile, filtered and analysed by HPLC.

[4] = Stability in the presence of the solvents acetonitrile and methanol; assay type: biochemical; settings: 1-18% v/v solvent
Method: (§1) The influence of solvents (acetonitrile and methanol) was examined by using 7 concentrations from 0.4-18.2% over 1 hour duplicate assays with 77 μM diuron and monitored by LCMS. The effect of temperature on the activity of the enzymes was determined in two ways: firstly, the temperature at which reaction was catalysed was controlled at 12 temperatures ranging from 2-60° C. with 154 μM diuron; secondly, enzyme was preincubated at 6 temperatures from 30-55° C. for 10 minutes prior to 1 hour assays at 25° C. The residual activity data was obtained by LCMS and fitted to the Boltzmann function (eq 1)

[5] = Activity of PuhA and PuhB expressed in M. smegmatis at each purification step (PNP release); assay type: biochemical
Method: (§2) Pwo polymerase (Roche) and restriction enzymes NdeI, BamHI and HindIII (Fermentas) were used following manufacturers' protocols. Electro-competent E. coli strains JM109 (Promega) were utilised for transformation of ligation reactions (using Promega ligase). Protein expressions in E. coli were inoculated (1% v/v) with an overnight seed culture in LB and then incubated with shaking at 20° C. for 11 hours followed by induction with 0.1 mM isopropyl-β-D-thiogalactopyranoside (IPTG) for 3 hours. M. smegmatis expressions were amended with 0.05% tween 80 and grown in LB at 28° C. for 2-4 days with no induction. Clarified cell-free extracts were obtained by resuspending the bacteria in 25 mM Tris (pH 8) followed by 3 passes through a French pressure cell (Thermo) and centrifugation at 27,000 g (Beckman Avanti).
(§3) Protein concentration was estimated using the Bio-rad protein assay (Bradford), with bovine serum albumin used as standard. Protein purity was monitored using sodium dodecyl sulphate-polyacrylamide gel electrophoresis (SDS-PAGE) stained with Coomassie brilliant blue. Where PuhA and B concentrations were estimated in semi purified extracts, SDS-PAGE gels were scanned using Labscan v5 (Amersham Biosciences) and band densitometry performed with Total lab TL100 (Nonlinear dynamics). Talon cobalt resin (BD Biosciences) was used for the purification of hexa-histidine tagged protein. Untagged protein was purified by ammonium sulfate (AS) precipitiation followed by hydrophobic interaction chromatography (HIC; Phenylsepharose), anion exchange chromatography (AEX; Macro Q) and size exclusion chromatography (SEC; Superose 6 or Sephadex 200). All columns were purchased from GE Healthcare. The hydrophobic interaction column was equilibrated with Tris (pH 8)/1 M ammonium sulfate and bound protein was then eluted with Tris (pH 8) over 400 mL. Protein was bound to the anion exchange column with Tris (pH 8) and eluted with a gradient of Tris (pH 8)/1 M NaCl over 500 mL. The buffer was exchanged to 25 mM HEPES/50 mM KCl (pH 8) during SEC and the protein was stable in this buffer at 4° C. for several weeks. The oligomeric structure was estimated with a Superose 6 size exclusion column calibrated with the following protein standards (kDa): thyroglobulin (669), ferritin (440), catalase (232) and aldolase (158). Standard tryptic peptide mass fingerprinting was used to confirm the identity of proteins excised from polyacrylamide gels by liquid chromatography electro spray ionisation mass spectroscopy/mass spectroscopy (LC ESI MS/MS) ion trap following the method of Campbell et al. (2008).

[6] = Bronsted plots (pKa of leaving group vs log kcat) for N-dimethyl phenylureas; assay type: biochemical; settings: slope between pKa 4-5
Text: (§4) was used to fit an activity y, either log(kcat) and log(kcat/Km) vs. pH. (y)^max is the plateau value and pKa^1 and pKa^2 are the apparent pKa values for the acidic and basic groups, respectively. Equations were fitted to the data using Kaleidagraph v3.6 (Synergy Software). The substrate pKa values were obtained via an online database www.syrres.com/esc/physdemo.htm (Syracuse Research Corporation).

[7] = Diuron hydrolase activity in the soluble fraction of recombinant expression hosts; assay type: biochemical
Text: PuhA and PuhB were amplified as N-hexa-histidine tagged fusions from pET14b (Novagen) in E. coli rosetta II cells (Novagen) and pMV261 (Stover et al., 1991) in M. smegmatis mc2. Protein without hexa-histidine tags was later expressed in M. smegmatis mc2. The PCR primers used in these cloning procedures are noted in Table 2 (SEQ ID NOs 5 to 13).
as §2

[8] = pH dependence of kcat, kcat/Km and Km with diuron in constant ionic strength buffer; assay type: biochemical
Text: (§5) A bell shaped model (eq 2)
as §4

[9] = Thermal stability: residual activity after 10 minutes pre-incubation, Boltzmann fit; assay type: biochemical
Method: as §1, §5

[10] = Activity of native PuhA and PuhB at each purification step (DCA formation); assay type: biochemical
Text: as §3

For `CN(C)C(=O)Nc1ccc(Cl)c(Cl)c1` [diuron, N′-3,4-dichlorophenyl N-dimethylurea], the knon [1] is given as 2.8e-10 s⁻¹, the kcat [2] is given as 0.48 s⁻¹ and the rate enhancement kcat/knon ([2]; diuron) is given as 1.7×10^9. The “degradation of diuron (loss of diuron, accumulation of DCA)” value [3] was “degradation of diuron was confirmed”.

B1: PuhB: phenylurea hydrolase from Mycobacterium brisbanense JK1, amino acid sequence SEQ ID NO:1 (protein)
chain: MSTIAITNVTLIDGLGGLPRPATTVIVEGDRFATVGPSDSTPVPEGATVVDGNRRWMVPGYVNGNVHLLDAWMFMAGPGTIEYLARWEGRYVEVIEEAAQLALRNGVTTVFDTHNAIEPVLAARDRINAGISQGARIFAAGTIVGMGGPFSADFHFAGRTAATRTFVDRIDSMFEAGVGHQLSLLPRKEVRARVRDYLSRGVDMLKIAVSDHIVFTLVDRSVGFDRSYQTFSRPVLEVMVEEARAAGVPVLTHSVSVEALDTSVELGADVLIHANYTLGQEIPNYLIDKIVASDSWAGLQTVHDQHRQGLEDVGSWAAALAGEPYATNERNLISANAKILLNTDAGCPSKDHLADLSPVEREDRPWTIGNDHFHWTQSMVEKGMSPLEAISAATINVARAYGKADQIGSVETGKLADFVLLDQDPVDDIRNLRSITEVFQAGAAVDRAALPTTPLVTAHPA
modifications: Mycobacterium brisbanense JK1
For B1, the “activity in the presence of methanol and acetonitrile (in words)” value [4] was “significantly inhibited”, the “Activity (mM PNP/mg/min)” value ([5]; AEX) was 3.9 mM PNP/mg/min and the “Activity (mM PNP/mg/min)” value ([5]; CFE) was 0.1 mM PNP/mg/min. For the same molecule, the “Activity (mM PNP/mg/min)” value ([5]; HIC) was 1.4 mM PNP/mg/min, the “Activity (mM PNP/mg/min)” value ([5]; SEC) was 4.3 mM PNP/mg/min and the βlg [6] was −1.1. The “activity in the soluble fraction (in words)” value ([7]; expressed in E. coli Rosetta 2 DE3 from pET14b) was “no activity was detected”, the “activity in the soluble fraction (in words)” value ([7]; expressed in M. smegmatis from pMV261) was “displayed diuron hydrolase activity” and the pKe1 ([8]; acidic shoulder) was 5.0. The pKes1 ([8]; acidic shoulder) was 5.0, the pKe2 ([8]; basic shoulder) was 9.6 and the pKes2 ([8]; basic shoulder) was 10.6. For the same molecule, the “pKe of the decrease in catalytic efficiency” value ([8]; basic side) was about 10, the “residual activity after incubation (in words)” value ([9]; 10 minutes incubation at 40° C.) was “retaining significant activity” and the “Tm indicating 50% activity retained” value ([9]; 10 minutes pre-incubation, then 1 hour assay at 25° C.) was 46.0 °C. For the same molecule, the “Activity (nmol DCA/μg/hour)” value ([10]; AS (ammonium sulfate)) was 0.24 nmol DCA/μg/hour, the “Activity (nmol DCA/μg/hour)” value ([10]; CFE (cell free extract)) was 0.05 nmol DCA/μg/hour and the “Activity (nmol DCA/μg/hour)” value ([10]; HIC) was 0.24 nmol DCA/μg/hour. The “Activity (nmol DCA/μg/hour)” value ([10]; SEC) was 0.04 nmol DCA/μg/hour.
